From the supplement of paper PMC9170038

Tests used:
MS2 coat protein [1] = assay: apparent KD of MS2 coat protein, switch ON state; designed switch direction (-1 OFF switch, 1 ON switch): -1; higher = weaker reporter binding; conditions: FMN input: 0 or 200 uM; Eterna round: R93 (includes R88 designs)
In short: (§1)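 Each design's apparent KD comes from the median of binding-curve fits to its normalised clusters. Those clusters carried RNA switches transcribed on-chip from Illumina sequencing clusters. SNAP-549-labelled MS2 coat protein was titrated onto them in twofold steps (0.7 or 1.5 nM to 3 µM; per step 0.8–1.5 h down to 10–20 min). Conditions were 100 mM Tris-HCl pH 7.5, 80 mM KCl, 4 mM MgCl2, without or with constant ligand.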

MS2 coat protein [2] = assay: apparent KD of MS2 coat protein, switch OFF state (with FMN for OFF switches, without FMN for ON switches); designed switch direction (-1 OFF switch, 1 ON switch): -1; higher = weaker reporter binding; conditions: FMN input: 0 or 200 uM; Eterna round: R93 (includes R88 designs)
In short: as §1

Sequence	apparent KD of MS2 coat protein (MS2 coat protein [1])	apparent KD of MS2 coat protein (MS2 coat protein [2])
AAAAAAAAAGGAUAUACAGGAGGUAAGGUCGGACAAAAAAAACAUGAGGAUCACCCAUGUAGAAGGUUUAAAAA [Excls2-IX]	34.5 nM	19.8 nM
AAAAAACAUGAGGAUCACCCAUGUAAGGAUAUACAAAACCCAUAUAAAAAGGGAAAAAGUAGAAGGUGCAAAAA [wbt round 1 mod 7]	22.5 nM	23.1 nM
AAAAAACAUGAGGAUCACCCAUGUAAGGAUAUCAGAGAAUUAAAAAAAAAAAAAAAAAUGAGAAGGUACAAAAA [excaliber]	31.7 nM	19 nM
AAAAAACAUGAGGAUCACCCAUGUAAGGAUAUGCAAAACCCAUAUAAAAAGGGAAAAAGCAGAAGGUGCAAAAA [wbt round 1 mod 5]	23.7 nM	33.2 nM
AAAAAACAUGAGGAUCACCCAUGUAAGGAUAUGCAAAAGAAAAGAAAAGAAAGAAGAAGCAGAAGGUACAAGAA [Userkaf]	35 nM	31.2 nM
AAAAAACAUGAGGAUCACCCAUGUAAGGAUAUGCUAUGGAAAAUAAAAAUAAAACAUAGCAGAAGGUACACCAA [Amethyst 81]	18.9 nM	27.3 nM
AAAAAACAUGAGGAUCACCCAUGUAAGGAUAUGCUCGUCAGUGCGAAAGCACAGAUGAGCAGAAGGUACAAAAA [66%, Wbt, 43]	24.8 nM	39 nM
AAAAAACAUGAGGAUCACCCAUGUAAGGAUAUGUGAAAAAAAAAAUAAAAAAAAAAAAACAGAAGGUACAAAAA [LROPPY Exclusion 1 - v02_deltaG=3.34]	45.2 nM	47.7 nM
AAAAAACAUGAGGAUCACCCAUGUCAGGAUAUACAAAAUAAAAUAAAAAUAAAAUAAAGUAGAAGGGACAAAAA [May 8]	28.5 nM	25.4 nM
AAAAAACAUGAGGAUCACCCAUGUCAGGAUAUGCUAUGGAAAUAAAAAAUAAAACAUAGCAGAAGGGACACCAA [Mat - Exclusion 1 - Eli mod - D48]	31 nM	55 nM
AAAAAACAUGAGGAUCACCCAUGUCAGGAUAUGCUCAGCAAUAUUAAAAUAAAGAACGGUAGAAGGGACAGAAA [Bilbo Confounded 23 - Jieux - Exclusion 1]	35.8 nM	34.7 nM
AAAAAACAUGAGGAUCACCCAUGUCAGGAUAUUCGAAAAAAAAAAAAAAAAAAAAAAAGGAGAAGGGACGAAAA [DR Excl. 1]	43.4 nM	56.8 nM
AAAAAACAUGAGGAUCACCCAUGUGAGGAUAUCCAGAAUGGAAUAAAAUAACAAGAAAGGAGAAGGCACAAAAA [Ex 1 May 37]	67.7 nM	42.1 nM
AAAAAACAUGAGGAUCACCCAUGUGAGGAUAUCGGAAAAGGAAAAAAAAAAAAGAAGACGAGAAGGCACACCAA	28.6 nM	25.1 nM
AAAAAACAUGAGGAUCACCCAUGUGAGGAUAUCGGUAGUGAGGCCAUAGUGUCAGUAAUGAGAAGGCACAUAAA [Brourd 613 Mod 10 - Jieux - Exclusion 1]	25.4 nM	22.7 nM
AAAAAACAUGAGGAUCACCCAUGUGAGGAUAUGAUGCGAAUAAAGAAAGAAGAAAGCAUCAGAAGGCACACCUA [Disincluded 3 (MS2 Riboswitches)]	26.3 nM	59.9 nM
AAAAAACAUGAGGAUCACCCAUGUGAGGAUAUGCAAAACCCAAAUAAAAAGAGAAAAAGCAGAAGGCACAAAAA [wbt round 1 mod 2]	23.5 nM	30.3 nM
AAAAAACAUGAGGAUCACCCAUGUGAGGAUAUGCGAAAUAAAAAUAAAAUAAUAAAAAGCAGAAGGCACAAAAA [Amethyst 64]	30.1 nM	40.6 nM
AAAAAACAUGAGGAUCACCCAUGUGAGGAUAUGCUAUGGAAAAUAAAAAUAAAACAUAGCAGAAGGCACACCAA [Denovo 16]	31.4 nM	37.4 nM
AAAAAACAUGAGGAUCACCCAUGUUAGGAUAUCCUGCAGAAAAAAAAAAAAAACUGCAGGAGAAGGAGCAAGGA [Banishment 3 - Jieux - Exclusion 1]	25.8 nM	44.5 nM

Sequence	apparent KD of MS2 coat protein (MS2 coat protein [1])	apparent KD of MS2 coat protein (MS2 coat protein [2])
AAAAAAGGAGGAUAUACGUACAUGUCAAAAGACGUGAAGGGACAUGAGGAUCACCCAUGUAGAAGGCUUAAAAA [JL Stem Breaker 6]	47.7 nM	18.1 nM
AAAAAGAGAGGAUAUACAUGAGGAUCACCCAUGUGAAAGACGAAAAAAAGUCUAAAAUGUAGAAGGCUCAAAAA [65%, Moding Exclusion3-cac2, 13]	23.1 nM	89.7 nM
AAAAAGAGAGGAUAUACAUGAGGAUCACCCAUGUGACAUUAAAUAAAUAAAAUAAAAUGUAGAAGGCUCAAAAA [65%, Moding Exclusion3-cac2, 22]	38.6 nM	171 nM
AAAAAGCAAGGAUAUACAUGAGGAUCACCCAUGUGAAAAAAAACAAUAAGAAGAAAAAGUAGAAGGUGCAAAAA [Ex 3 Tesla 1]	24 nM	18.8 nM
AAAAAGCUAGGAUAUACAUGAAAAAAAAAAAAGUAAAAAAAACAUGAGGAUCACCCAUGUAGAAGGAGCAAAAA [water's exclusion 2 last]	40.4 nM	37 nM
AAAAAGGCAGGAUAUACAAAAAAAUUUUUAAAAAAAAAAAAACAUGAGGAUCACCCAUGUAGAAGGGCCAAAAA [Ex 2.1]	52 nM	43.3 nM
AAAAAGGCAGGAUAUACAUGAGGAUCACCCAUGUAAAGAAAGAAAGAGGUGAAAGAAAGUAGAAGGGCCAAAAA [Ex3 sub 2]	92.9 nM	72 nM
AAAAAGGCAGGAUAUACGAACAUGUCGAAAGACGUGAAGGGACAUGAGGAUCACCCAUGUAGAAGGGUCAAGAA [Mat - Exclusion 2 - JL mod - D76]	90.8 nM	91.9 nM
AAAAAGGCAGGAUAUACGUACAUGUCGAAAGACGUGAAGGGACAUGAGGAUCACCCAUGUAGAAGGGUCAAGAA [Mat - Exclusion 2 - JL mod - D77]	111 nM	93.4 nM
AAAAAGGCAGGAUAUGCAUACACACGAAAAAAAACGCUGGGACAUGAGGAUCACCCAUGUAGAAGGGCCAAAAA [Dora Explored 10 - Jieux - Exclusion 2]	57.2 nM	38.6 nM
AAAAAGGGAGGAUAUACAUGAGGAUCACCCAUGUAACAGACGAAAAAGAGUCUGAAAUGUAGAAGGCCCAAAAA [65%, Moding Exclusion3-cac2, 5]	24.6 nM	48.4 nM
AAAAAGGUAGGAUAUACAUGAGGAUCACCCAUGUAAAAAAAAACAGAAAAAAACAAAUGUAGAAGGGCCAAAAA [Ex3 Malc#5]	25.9 nM	35.6 nM
AAAAAGUCAGGAUAUACGUAAGUGCGAAAGCACAAAUGGAAACAUGAGGAUCACCCAUGUAGAAGGGACAAGAA [JL In the Red 02 (Mod)]	36.7 nM	23.6 nM
AAAAAGUCAGGAUAUAGAAAAGGUCACGAAAGUGACAAAGGCUAGAAGGGACAUGAGGAUCACCCAUGUAAAAA [Mat - Mod of Eli]	53.5 nM	28.8 nM
AAAAAGUCAGGAUAUGUACGAAAAAAUAAAAAAAUAAAAGUACAGAAGGGACAUGAGGAUCACCCAUGUCAGGG [EX4 393: Minimal 5]	67.5 nM	118 nM
AAAAAGUCAGGAUAUGUGGAAAAAAUAAAAAAAAUAAAAACACAGAAGGGACAUGAGGAUCACCCAUGUAAAAA [Ex 4 May 19]	71.7 nM	47.2 nM
AAAAAGUGAGGAUAUACAUGAGGAUCACCCAUGUGUAUAAAAAAAUACACAAAAGAAAGUAGAAGGCACUAAAA [Ex 3 Hot]	21.1 nM	58.6 nM
AAAAAGUGAGGAUAUACAUGAGGAUCACCCAUGUUAAAAAAGGAAAAAAAAAAAAAAUGUAGAAGGCGCAAAAA [water's exclusion 3]	36.9 nM	36 nM
AAAAAGUGAGGAUAUACGCUGAGGAGUAGACACAACCAGGCGUAGAAGGCACAUGAGGAUCACCCAUGUCCAAA [EX4 Malc#11]	26.1 nM	39.8 nM
AAAAAGUGAGGAUAUGUCAAAGGUCACGAAAGUGACAAAGGACAGAAGGCACAUGAGGAUCACCCAUGUGAAAA [Fiskers Exclusion 4D1 65% - Early + late G segment 2]	26.7 nM	32.3 nM
